Measurements as given in paper PMC7954794, “Protein context shapes the specificity of SH3 domain-mediated interactions in vivo” (Nature Communications, 2021).

B1: PIN3 (protein, UniProt Q06449 2-215, looked up)
[PSI+] inducibility protein 3: SASLINRSLTNIRTELDFLKGSNVISNDVYDQINKSLPAKWDPANAPRNASPASLEYVEALYQFDPQQDGDLGLKPGDKVQLLEKLSPEWYKGSCNGRTGIFPANYVKPAFSGSNGPSNLPPPPQYKAQELQQIPTQNSAASSYQQQPFPPPSTNYYQQPQQQPQQAPPPQQQQQQQQHQSSHSHLKSFGSKLGNAAIFGAGASIGSDIVNNIF
B2: PEX13 (protein, UniProt P80667 1-386, looked up)
Peroxisomal membrane protein …: MSSTAVPRPKPWETSASLEEPQRNAQSLSAMMTSNQQDSRPTEESNNSNSASESAPEVLPRPAALNSSGTYGESNTIPGIYGNSNYGIPYDNNPYSMNSIYGNSIGRYGYGGSYYGNNYGSFYGGGYGAGAGYGMNNGSGLGESTKATFQLIESLIGAVTGFAQMLESTYMATHNSFFTMISVAEQFGNLKEMLGSFFGIFAIMKFLKKILYRATKGRLGIPPKNFAESEGSKNKLIEDFQKFNDSGTINSNEKATRRKISWKPLLFFLMAVFGFPYLLNKFITKLQTSGTIRASQGNGSEPIDPSKLEFARALYDFVPENPEMEVALKKGDLMAILSKKDPLGRDSDWWKVRTKNGNIGYIPYNYIEIIKRRKKIEHVDDETRTH
B3: MYO5 (protein, UniProt Q04439 1-1219, looked up)
Myosin-5: MAILKRGARKKVHQEPAKRSANIKKATFDSSKKKEVGVSDLTLLSKISDEAINENLKKRFLNATIYTYIGHVLISVNPFRDLGIYTDAVMNEYKGKNRLEVPPHVFAIAESMYYNMKSYNENQCVIISGESGAGKTEAAKRIMQYIAAASSTHTESIGKIKDMVLATNPLLESFGCAKTLRNNNSSRHGKYLEIKFNNQFEPCAGNITNYLLEKQRVVSQIKNERNFHIFYQFTKGASDAYRQTFGVQKPEQYVYTAAAGCISAETIDDLQDYQETLKAMRVIGLGQEEQDQIFRMLAAILWIGNVSFIENEEGNAQVRDTSVTDFVAYLLQIDSQLLIKSLVERIMETNHGMKRGSVYHVPLNIVQADAVRDALAKAIYNNLFDWIVSRVNKSLQAFPGAEKSIGILDIYGFEIFEHNSFEQICINYVNEKLQQIFIQLTLKSEQETYEREKIQWTPIKYFDNKVVCDLIEARRPPGIFAAMNDSVATAHADSNAADQAFAQRLNLFTTNPHFDLRSNKFVIKHYAGDVTYDIDGITDKNKDQLQKDLVELIGTTTNTFLATIFPDTVDRESKRRPPTAGDKIIKSANDLVETLSKAQPSYIRTIKPNETKSPNDYDDRQVLHQIKYLGLQENVRIRRAGFAYRQVFEKFVERFYLLSPHCSYAGDYTWQGDTLDAVKYILQDSSIPQQEYQLGVTSVFIKTPETLFALEHMRDRYWHNMAARIQRAWRRFLQRRIDAATKIQRTIRERKEGNKYEKLRDYGTKVLGGRKERRSMSLLGYRAFMGDYLSCNESKSKGAYIKRQVSIKEKVIFSIHGEALHTKFGRSAQRLKKTFLLTPTTLYIVGQTLVQNAMTYTQDYKIDVRNIQAVSLTNLQDDWVAIKLASSGQPDPLINTYFKTELITHLKRLNDKIQIKIGSAIEYQKKPGKLHSVKCQINESAPKYGDIYKSSTISVRRGNPPNSQVHKKPRKKSSISSGYHASSSQATRRPVSIAAAQHVPTAPASRHSKKPAPPPPGMQNKAATRRSVPNPASTLTASQSNARPSPPTAATRATPAATPAAAAMGSGRQANIPPPPPPPPPSSKPKEPMFEAAYDFPGSGSPSELPLKKGDVIYITREEPSGWSLGKLLDGSKEGWVPTAYMKPHSGNNNIPTPPQNRDVPKPVLNSVQHDNTSANVIPAAAQASLGDGLANALAARANKMRLESDDEEANEDEEEDDW
B4: HOF1 (protein, UniProt Q05080 1-669, looked up)
Cytokinesis protein 2: MSYSYEACFWDPNDNGVNILLGHISQGIRSCDSMILFFKQRSELEKDYARRLGAITGKLDKDIGTNMDYGKLNETFNVVLSVEKARAQSHSKQSEILFRQIYTDTKAFAANLQARYTTLSGKIERLRMDKFNKKKGCEVLQKKLQDAQIRFRDLQLNENNMIGAKRVEHNKRELLKWESNSQEYKVQLDVLKQEYKASQKFWIHEWAQLSCELQEMENARISFLQSKLQQFATSSMETYILEQTKMDMLTNHLNSFTAADEISTFSKENGTGRLKHKTSKGDMNSSANWAQMSSISTTSKKTESYMDNIRKLSSQLKETENKRKLASIDKYEKPLPSPEVTMATQFRNSTPVIRNETKVVANPTLSLRSSPVQLQSNVDDSVLRQKPDKPRPIVGEEQLKPDEDSKNPDEKGLMVHKRNQSLSSPSESSSSNPTDFSHIKKRQSMESMTTSVSSMANSIDDSQRFAKSWNSSNRKRKSMSHLQVPSSASSRSDDGGRTPNSAHNLNEDDYNTRRDTSTSTILFKPPVAVRGTSRGHTHRQSMIMQDSSNPIEDALYEMERIQSSSKPGTKTGNIMDERGVVRDRGITVTLPIVTSEGFPVIEYAKAMYPLIGNEAPGLANFHKGDYLLITEIVNKDWYKGEVYDNDRIDRNHRIGLIPYNFIQLLHQGL
B5: LSB3 (protein)
chain: MGINNPIPRSLKSETKKAAKILASFVKPNQVFGADQVIPPDVLKRAKGLAIITILKAGFLFSGRAGSGVIVARLKDGTWSAPSAIAMAGAGAGGMVGIELTDFVFILNTQDAVKSFSEFGTITLGGNVSVSAGPLGRSAEAAASASAGGVAAVFAYSKSKGLFAGVSVEGSAIIERREANRKFYGDNCTAKMILSGRIRPPPAVDPLFRVLESRAFNYRPSNGGRGSFDDDEDDYYDDDDYYNDIPSSFSSTDASSTRPNTRSTRRRAQSGSRYTFDDDDDDDDYGTGYSRNSRLAPTNSGGSGGKLDDPSGASSYYASHRRSGTAQSRARSSRNRWADDEYDDYDDDYESGYRRGNGRDRTKDREVDDLSNRFSKSRISSASTPQTSQGRFTAPTSPSTSSPKAVALYSFAGEESGDLPFRKGDVITILKKSDSQNDWWTGRVNGREGIFPANYVELV
modifications: left off: DHFR F[3], C-terminal, kept
B6: LSB1 (protein, UniProt P53281 2-241, looked up)
LAS seventeen-binding protein …: SASLVNRSLKNIRNELEFLKESNVISGDIFELINSKLPEKWDGNQRSPQNADTEEYVEALYDFEAQQDGDLSLKTGDKIQVLEKISPDWYRGKSNNKIGIFPANYVKPAFTRSASPKSAEAASSSTVSRPSVPPPSYEPAASQYPSQQVSAPYAPPAGYMQAPPPQQQQAPLPYPPPFTNYYQQPQQQYAPPSQQAPVEAQPQQSSGASSAFKSFGSKLGNAAIFGAGSAIGSDIVNSIF
B7: HSE1 (protein, UniProt P38753 2-452, looked up)
Class E vacuolar …: SSSAIKIRNALLKATDPKLRSDNWQYILDVCDLVKEDPEDNGQEVMSLIEKRLEQQDANVILRTLSLTVSLAENCGSRLRQEISSKNFTSLLYALIESHSVHITLKKAVTDVVKQLSDSFKDDPSLRAMGDLYDKIKRKAPYLVQPNVPEKHNMSTQADNSDDEELQKALKMSLFEYEKQKKLQEQEKESAEVLPQQQQQHQQQNQAPAHKIPAQTVVRRVRALYDLTTNEPDELSFRKGDVITVLEQVYRDWWKGALRGNMGIFPLNYVTPIVEPSKEEIEKEKNKEAIVFSQKTTIDQLHNSLNAASKTGNSNEVLQDPHIGDMYGSVTPLRPQVTRMLGKYAKEKEDMLSLRQVLANAERSYNQLMDRAANAHISPPVPGPALYAGMTHANNTPVMPPQRQSYQSNEYSPYPSNLPIQHPTNSANNTPQYGYDLGYSVVSQPPPGYEQ
B8: SHO1 (protein, UniProt P40073 1-367, looked up)
High osmolarity signaling …: MSISSKIRPTPRKPSRMATDHSFKMKKFYADPFAISSISLAIVSWVIAIGGSISSASTNESFPRFTWWGIVYQFLIICSLMLFYCFDLVDHYRIFITTSIAVAFVYNTNSATNLVYADGPKKAAASAGVILLSIINLIWILYYGGDNASPTNRWIDSFSIKGIRPSPLENSLHRARRRGNRNTTPYQNNVYNDAIRDSGYATQFDGYPQQQPSHTNYVSSTALAGFENTQPNTSEAVNLHLNTLQQRINSASNAKETNDNSNNQTNTNIGNTFDTDFSNGNTETTMGDTLGLYSDIGDDNFIYKAKALYPYDADDDDAYEISFEQNEILQVSDIEGRWWKARRANGETGIIPSNYVQLIDGPEEMHR
B9: MYO3 (protein, UniProt P36006 1-1272, looked up)
Myosin-3: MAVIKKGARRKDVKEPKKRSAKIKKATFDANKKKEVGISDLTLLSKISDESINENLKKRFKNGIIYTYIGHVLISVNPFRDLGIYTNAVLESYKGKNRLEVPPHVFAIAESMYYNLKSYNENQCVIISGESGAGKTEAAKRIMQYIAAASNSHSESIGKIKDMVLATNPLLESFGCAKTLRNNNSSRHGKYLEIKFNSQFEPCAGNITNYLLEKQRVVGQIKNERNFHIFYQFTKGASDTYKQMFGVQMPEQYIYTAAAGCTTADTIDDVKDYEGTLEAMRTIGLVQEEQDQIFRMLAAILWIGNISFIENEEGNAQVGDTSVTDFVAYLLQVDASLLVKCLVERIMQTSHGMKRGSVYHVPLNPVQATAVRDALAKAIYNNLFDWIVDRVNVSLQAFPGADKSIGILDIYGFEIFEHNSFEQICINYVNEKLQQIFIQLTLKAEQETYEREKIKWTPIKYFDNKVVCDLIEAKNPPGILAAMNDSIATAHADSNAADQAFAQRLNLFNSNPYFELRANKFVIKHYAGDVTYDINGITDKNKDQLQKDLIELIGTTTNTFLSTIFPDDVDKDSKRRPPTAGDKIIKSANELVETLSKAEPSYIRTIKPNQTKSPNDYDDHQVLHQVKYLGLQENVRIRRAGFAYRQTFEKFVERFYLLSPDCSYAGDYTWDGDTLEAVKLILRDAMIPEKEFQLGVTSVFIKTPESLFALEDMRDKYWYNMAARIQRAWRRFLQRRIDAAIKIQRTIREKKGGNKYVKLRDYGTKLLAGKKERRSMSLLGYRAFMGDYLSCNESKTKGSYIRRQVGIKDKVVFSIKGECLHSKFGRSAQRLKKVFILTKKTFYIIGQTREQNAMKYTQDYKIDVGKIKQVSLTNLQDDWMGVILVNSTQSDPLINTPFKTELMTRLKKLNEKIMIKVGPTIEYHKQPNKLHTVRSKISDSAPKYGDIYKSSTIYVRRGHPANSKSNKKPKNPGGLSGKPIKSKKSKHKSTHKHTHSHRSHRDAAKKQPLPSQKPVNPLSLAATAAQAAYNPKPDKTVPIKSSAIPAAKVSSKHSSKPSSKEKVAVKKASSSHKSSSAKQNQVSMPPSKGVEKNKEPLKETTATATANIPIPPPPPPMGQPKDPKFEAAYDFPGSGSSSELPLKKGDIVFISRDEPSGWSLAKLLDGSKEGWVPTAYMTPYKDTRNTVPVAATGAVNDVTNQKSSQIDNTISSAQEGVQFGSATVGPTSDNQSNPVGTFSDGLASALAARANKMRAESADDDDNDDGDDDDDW

system: 575 putative partners (preys) of 22 WT SH3-containing proteins; assay: DHFR-PCA on solid medium, WT and SH3-deleted baits (Fig. 1B); format: cell-based, Saccharomyces cerevisiae; settings: number of PPIs; SH3 domain in its own protein; DHFR-PCA; Fig2D,S2F
Outline: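 In S. cerevisiae, 22 SH3-containing baits fused genomically to DHFR F[1,2], either WT or with each SH3 replaced via CRISPR by a poly-Gly/Ser linker, screened against 575 DHFR F[3] preys plus 40 negative controls in 1536 arrays, preys duplicated at randomized positions.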

Point of comparison: B5, “SH3-dependent PPIs” value 19. Against it:
- B1 — lower, 13
- B2 — lower, 1
- B3 — the same, 19
- B4 — lower, 4
- B6 — lower, 8
- B7 — lower, 1
- B8 — lower, 2
- B9 — lower, 17
